Assay results from paper PMC7062783, “Endophilin-A coordinates priming and fusion of neurosecretory vesicles via intersectin” (Nature Communications, 2020).

Molecular target: T1, recombinant rat endophilin A1 FL (GST fusion) (rat, UniProt O35179 1-352)
T1 construct: endophilin A1 (endophilin 1), rat, full length, cloned into pGEX4T-1; also called endophilin 1
Test: pull-down; 50 or 100 ug GST-fusion protein coupled to GST-Bind resin, incubated with 10 ug His6-tagged recombinant protein in 1 ml for 1 h at 4 °C; extensive washes; Coomassie staining and/or SDS-PAGE and immunoblotting
Settings: both partners purified

T1 sequence (O35179 whole entry, the tested form may be a part): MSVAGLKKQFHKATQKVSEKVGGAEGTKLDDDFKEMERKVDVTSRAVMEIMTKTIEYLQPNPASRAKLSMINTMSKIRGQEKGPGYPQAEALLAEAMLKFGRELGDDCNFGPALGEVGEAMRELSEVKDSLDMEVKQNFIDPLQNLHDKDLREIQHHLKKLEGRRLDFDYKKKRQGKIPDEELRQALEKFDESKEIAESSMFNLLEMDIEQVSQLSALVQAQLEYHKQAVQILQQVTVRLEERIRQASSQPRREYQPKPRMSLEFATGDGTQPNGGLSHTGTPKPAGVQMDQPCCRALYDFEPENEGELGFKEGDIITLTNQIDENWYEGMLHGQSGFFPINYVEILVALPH

- binding result: binds
B1: recombinant human intersectin-1 SH3B (aa 914-970), His6-tagged (domain or fragment, UniProt Q15811 914-970, looked up)
chain: EGLQAQALYPWRAKKDNHLNFNKNDVITVLEQQDMWWFGEVQGQKGWFPKSYVKLIS
notes: intersectin-1, human, SH3B domain, aa 914-970, cloned in pET28a; also called ITSN-1; ITSN1
